# Laboratory results from patent US8765444 (BOARD OF TRUSTEES OF THE UNIVERSITY OF ILLINOIS, dated 2014).
# B1: FLAG-γ134.5 Δ106 (other)
# chain: MARRRRHRGPRRPRPPGPTGAVPTAQSQVTSTPNSEPAVRSAPAAAPPPPPASGPPPSCSLLLRQWLHVPEPPGAGPGGGANPSHPPSRPFRLPPRLALRLRVTAEHLARLRLRRAGGEGAPEPPATPATPATPATPATPATPATPATPATPATPARVRFSPHVRVRHLVVWASAARLARRGSWARERADRARFRRRVAEAEAVIGPCLGPEARARALARGAGPANSV
# notes: the printed limits overlap with the neighbouring deletions, so the exact junction is uncertain
# B2: FLAG-dN200, a truncated form of Ebola VP35 (other)
# chain: NNLNSTTSLTEENFGKPDISAKDLRNIMYDHLPGFGTAFHQLVQVICKLGKDSNSLDIIHAEFQASLAEGDSPQCALIQITKRVPIFQDAAPPVIHIRSRGDIPRACQKSLRPVPPSPKIDRGWVCVFQLQDGKTLGLKI
# notes: also called control protein dN200
# Experiments:
# [1] = target: T1, TBK1 (as used in Example 6; construct not named) (Homo sapiens (Human), UniProt Q9UHD2 1-729); assay: co-immunoprecipitation from transfected 293T cells
# T1 construct: also called HA-TBK1 (constructed, probably the one used)
# T1 sequence: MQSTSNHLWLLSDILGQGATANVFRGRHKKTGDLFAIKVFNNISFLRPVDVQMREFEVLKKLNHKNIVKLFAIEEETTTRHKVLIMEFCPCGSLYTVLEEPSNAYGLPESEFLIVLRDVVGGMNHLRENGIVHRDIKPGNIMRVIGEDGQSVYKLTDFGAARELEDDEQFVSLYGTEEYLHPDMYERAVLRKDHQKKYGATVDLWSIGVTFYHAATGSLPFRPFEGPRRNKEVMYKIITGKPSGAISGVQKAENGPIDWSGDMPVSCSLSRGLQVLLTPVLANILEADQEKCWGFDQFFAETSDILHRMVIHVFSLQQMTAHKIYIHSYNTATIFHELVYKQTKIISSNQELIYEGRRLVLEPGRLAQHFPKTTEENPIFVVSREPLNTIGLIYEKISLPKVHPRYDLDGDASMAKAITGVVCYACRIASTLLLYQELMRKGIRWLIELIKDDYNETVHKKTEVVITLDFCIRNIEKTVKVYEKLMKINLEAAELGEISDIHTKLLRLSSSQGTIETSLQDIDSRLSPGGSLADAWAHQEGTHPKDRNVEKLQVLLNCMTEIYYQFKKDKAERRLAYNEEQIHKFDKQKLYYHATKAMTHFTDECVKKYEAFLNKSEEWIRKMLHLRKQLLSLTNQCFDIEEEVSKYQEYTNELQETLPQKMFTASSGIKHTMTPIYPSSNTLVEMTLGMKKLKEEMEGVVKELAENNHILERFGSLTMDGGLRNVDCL
# HA-γ134.5 = target: T2, HA-γ134.5 (HSV-1, UniProt P08353 1-263); assay: co-immunoprecipitation from transfected 293T cells
# T2 sequence: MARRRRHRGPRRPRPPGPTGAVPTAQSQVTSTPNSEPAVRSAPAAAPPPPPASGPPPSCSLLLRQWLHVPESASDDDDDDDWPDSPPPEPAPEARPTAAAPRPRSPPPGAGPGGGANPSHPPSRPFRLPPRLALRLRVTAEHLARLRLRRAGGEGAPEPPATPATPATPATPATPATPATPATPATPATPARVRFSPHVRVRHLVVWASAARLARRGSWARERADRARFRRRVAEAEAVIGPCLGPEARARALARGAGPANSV
Binder,binding result [1],binding result (HA-γ134.5)
B1,no binding,–
B2,–,no binding
